{"source": "patent US20090011987A1", "about": "“Use of Glp-2 for the Treatment of Ischemia-Reperfusion Injury” (Novo Nordisk A/S, priority 2005, published 2009)", "origin": "cited, not measured here", "conditions": "adult human plasma", "data": [{"substance": "GLP-2(1-33) [wild type human GLP-2(1-33)]", "values": [{"measurement": "half-life", "value": "lower than 2 hours"}]}]}
